Positions count from the first letter of the chain named. Like-named read-outs stand apart in the source and are kept apart here.
Assays:
[1] = target: T1, human CD39 recombinant antigen (UniProt P49961 38-478); experiment: SPR
T1 chain: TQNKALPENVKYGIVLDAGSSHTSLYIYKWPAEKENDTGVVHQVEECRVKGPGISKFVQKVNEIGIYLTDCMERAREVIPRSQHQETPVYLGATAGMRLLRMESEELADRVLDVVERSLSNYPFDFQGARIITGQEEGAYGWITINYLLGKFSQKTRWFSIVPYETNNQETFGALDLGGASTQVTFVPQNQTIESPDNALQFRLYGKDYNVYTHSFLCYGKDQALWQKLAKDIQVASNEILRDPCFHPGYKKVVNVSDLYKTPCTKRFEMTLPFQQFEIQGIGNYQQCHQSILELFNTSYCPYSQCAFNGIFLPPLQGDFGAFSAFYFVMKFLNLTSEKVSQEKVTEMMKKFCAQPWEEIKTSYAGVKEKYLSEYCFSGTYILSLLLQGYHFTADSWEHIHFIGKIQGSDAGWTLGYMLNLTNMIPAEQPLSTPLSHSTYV

[2] = target: T1, human CD39 recombinant antigen; experiment: SPR

B1: Tre_291_sc (antibody, V domains shown)
VH: QVQLKQSGPGLVQPSQSLSITCTVSGFSLTSYGVHWVRQSPGKGLEWLGVIWRRGSTDYNAAFMSRLSITKDTSKSQVFFKMNSLQTDDTAIYYCAGVRGDAMDYWGQGTSVTVSS
VL: DIVMTQSHKSMSTSVGDRVSVTCKASQNVGTNVAWYQQKPGQSPKALIYSASYRYSGVPDRFTGSGSGTDFTLTISNVQSEDLAEYFCQQYNSYPLTFGGGTKLEIK
For B1, the Kd [1] was 2.22 nM.

B2: HuP4_IB_sc (Fc fusion)
VH: QVQLLESGPELVKPSATLSITCTVSGFSLTNYGVHWIRQAPGKGLEWLGVILRRGSTDYNAAFMSRFTISKDNSKNQVYFKLRSVTAEDTAVYYCAKTAVVAGDYFDYWGQGTMVTVSS
VL: DIQMTQSHSTLSLSVGDRVTITCKASQNVGTNVAWYQQKPGQPPKALIYSASYRYSGVPSRFSGSGSGTDFTLTISSVQAEDVAVYYCQQYNSYPLTFGPGTKLEIK
For B2, the Kd [1] was 0.396 nM.

B3: HuP4_41_sc (antibody, V domains shown)
VH: QVQLVESGGGVVQPGGSLRLSCVVSGFTLTNYGVHWVRQAPGKGLEWLAVILRRGSTDYNAAFMSRLAISKDNSKNTVYLELNSLRLDDTAVYYCAKTAVVAGDYFDYWGQGTTVTVSS
VL: B1 VL with H8Q, S10F, V21I, A46L, V78M, E85D
In the case of B3, the Kd [1] is reported as 0.106 nM.

B4: I-394h4 (antibody, V domains shown)
VH: EVQLQQSGPELVKPGASVKMSCKASGYTFTDYNMHWVKQSHGRTLEWIGYIVPLNGGSTFNQKFKGRATLTVNTSSRTAYMELRSLTSEDSAAYYCARGGTRFAYWGQGTLVTVSA
VL: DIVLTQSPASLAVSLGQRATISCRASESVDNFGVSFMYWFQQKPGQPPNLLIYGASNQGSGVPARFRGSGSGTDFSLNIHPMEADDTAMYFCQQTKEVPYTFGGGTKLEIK
B4 was tested, and the Kd [2] was 0.956 nM.

B5: 6-3m1 (antibody, V domains shown)
VH: QVQLKQSGAELVKPGASVKLSCTASGFSIKDTYVHWVKQRPEQGLEWIGKIDPANVNTKFDPKFQGKATITADTSSNTAYLQLSSLTSEDTAVYYCALYGYDDDAYYFDYWGQGTTLTVSS
VL: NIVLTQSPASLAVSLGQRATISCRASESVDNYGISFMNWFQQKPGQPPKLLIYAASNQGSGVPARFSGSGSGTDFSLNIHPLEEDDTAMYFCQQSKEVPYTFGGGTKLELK
B5 was tested, and the Kd [2] was 0.399 nM.

B6: 23-7m1 (antibody, V domains shown)
VH: EVQLQQSGPELEKPGASVKISCKVSGYSFTDYNLNWVKQYNGKNLEWIGNIDPYSGGTRYNQKFKGKATLTIDQSSSTAYMHLKSLTSEDSAVYYCGLYGYDDDANYFDDWGQGTTLTVSS
VL: EIVLTQSPAIMSPSPGEKVTIACSASSSVSYMHWFQQKPGTSPKLWIYATSNLASGVPARFSGSGSGTSYSLTISRMEAEDVATYYCQQRSSYPLTFGAGTKLELK
B6 was tested, and the Kd [2] was 0.573 nM.

B7: HuP4_51_sc (antibody, V domains shown)
VH: B3 VH with T28S, A49G
VL: B1 VL with H8Q, S10F, V21I, A46L, V78M, E85D
Binder B7 has a Kd [1] of 0.369 nM.

B8: P4_sc (Fc fusion)
VH: QVQLKESGPSLVQPSQSLSITCTVSGFSLTNYGVHWVRQSPGKGLEWLGVILRRGSTDYNAAFMSRLSITKDNSKSQVFFKMNSLQADDTAIYYCAKTAVVAGDYFDYWGQGTTLTVSS
VL: B1 VL with S10F, G100T
Work on B8 yielded a Kd [1] of 0.307 nM.

B9: I67_sc (antibody, V domains shown)
VH: DVQLQESGPSLVQPSQSLSINCTVSGFSLSSYGVHWVRQSPGKGLEWLGVIWRRGSTDYNAAFMSRLSITKDNSKSQVFFKMNRLQADDTATYYCAKGISTATSWFAYWGQGTLVTVSA
VL: B1 VL with S10F, G100A, I106L
In the case of B9, the Kd [1] is reported as 1.65 nM.

B10: mAnE67_sc (antibody, V domains shown)
VH: EVQLVESGGGLVKPGGSRKLSCAASGFTFSDYGMHWVRQAPEKGLEWVAYISSGSSIIYYADTVKGRFTISRDNAKNTLFLQMTGLRSEDTAMYYCARKDYPYAMDYWGQGTSLAVSS
VL: B1 VL
In the case of B10, the Kd [1] is reported as 4.75 nM.

B11: T86_sc (antibody, V domains shown)
VH: QIQLVQSGPELKKPGETVKISCEASGYTFINYGMNWVKQAPGKGLKWMGWINTYTGEPTYADDFKGRFAFSLETSANTAYLQINNLKNEDTATYFCARKGYYGYPNYYAMDYWGQGTSVTVSS
VL: DIVMTQSQKFMSTSVGDRVSITCKASQNVGTAVAWYQQKPGQSPKLLIYSASNRYTGVPDRFTGSGSGTDFTLTISNMQSEDLADYFCQQYSSYPITFGTGTKLEIK
For B11, the Kd [1] was 4.28 nM.

B12: T-31414h4 (antibody, V domains shown)
VH: QVQLVQSGAEVKKPGASVKVSCKASGYTFKSYEMHWVRQAPGQGLEWMGRINPSVGSTWYAQKFQGRVIMIRDTSTSTVYMELSSLRSEDTAVYYCARGKREGGTEYLRNWGQGTLVTVSS
VL: EIVLIQSPGILSLSPGERATLSCRASQSVSSSYLAWYQQKPGQAPRLLIYGASSRATGIPDRFSGSGSGTDFTLTISRLEPEDFAVYYCQQYHSYITFGGGTKVEIK
B12 showed a Kd [2] of 9.83 nM.

B13: HuP4_11_sc (antibody, V domains shown)
VH: EVQLVESGGALVQPGRSLRLSCAVSGFTLSNYGVHWVRQAPGKGLEWVAVILRRGSTDYNAAFMSRFTISKDNSKNTVYLQMNSLRADDTAVYYCAKTAVVAGDYFDYWGQGTTVTVSS
VL: B1 VL with H8Q, S10F, V21I, A46L, V78M, E85D
For B13, the Kd [1] was 0.377 nM.

Source: US20250215105A1 (published 2025)
